Data published in patent US20100292444A1 (published 2010).
Positions count from the first letter of the chain named. Numbers in names are those of the source. Values belong to the binder of their own block, whether it stands above or below them.

Target: T1, Ser-PRLR (1-210) (UniProt P16471 25-234)
T1 construct: range 1-210; also called PRL receptor; prolactin receptor
T1 sequence: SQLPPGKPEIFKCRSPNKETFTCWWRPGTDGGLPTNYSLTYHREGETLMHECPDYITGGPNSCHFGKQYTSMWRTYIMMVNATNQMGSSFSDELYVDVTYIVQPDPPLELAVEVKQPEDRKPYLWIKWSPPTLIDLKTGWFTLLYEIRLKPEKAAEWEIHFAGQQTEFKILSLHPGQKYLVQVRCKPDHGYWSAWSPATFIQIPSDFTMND
Assay: SPR (Biacore 3000): Ser-PRLR (1-210) amine-coupled to a CM5 chip, analogue injected at 500 nM
Procedure: Ser-PRLR (1-210) (25 μg/ml in 10 mM sodium acetate, pH 3.0), was injected into a Biacore 3000 instrument at a flow rate of 5 μl/min and coupled to a CM5 sensor chip by amine coupling chemistry. […] Data evaluation was performed in BiaEvaluation 4.1. Regeneration was accomplished with 4.5 M MgCl₂ between runs.
The PRL receptor binding affinity of G129R-PRL was compared to that of N56D,G129R-PRL (corresponding to the deamidated form of G129R-PRL), using the Biacore-assay. […] Thus, deamidation of […] markedly reduces the receptor binding affinity

Kd: 27 nM
B1: G129R-PRL (ligand)
chain: LPICPGGAARCQVTLRDLFDRAVVLSHYIHNLSSEMFSEFDKRYTHGRGFITKAINSCHTSSLATPEDKEQAQQMNQKDFLSLIVSILRSWNEPLYHLVTEVRGMQEAPEAILSKAVEIEEQTKRLLERMELIVSQVHPETKENEIYPVWSGLPSLQMADEESRLSAYYNLLHCLRRDSHKIDNYLKLLKCRIIHNNNC
notes: also called G129R-hPRL

Kd: 313 nM
B2: N56D,G129R-PRL (ligand)
chain: B1 chain with N56D
notes: Recombinant mutant that mimics G129R-PRL deamidated at Asn-56; also called deamidated form of G129R-PRL
